The record followed here is patent US20200332281 (published 2020).

B1: T_apt.3 (= T_beads_apt.1, T_beads_re_apt.7) (ssDNA)
DNA: AGCAGCACAGAGGTCAGATGGATGGTGTAGGTTGGGAGAGGCTCAGTGCCCCTATGCGTGCTACCGTGAA
B2: T_apt.6 (ssDNA)
DNA: AGCAGCACAGAGGTCAGATGGTTGGGTAGGGTTGGATAGGGGCAAGTAGACCTATGCGTGCTACCGTGAA
B3: T_apt.4 (= T_beads_re_apt.8) (ssDNA)
DNA: AGCAGCACAGAGGTCAGATGTTGGTGGGGTGGCTTTGGGTATTTACTTGGCCTATGCGTGCTACCGTGAA
B4: T_apt.2 (= T_beads_apt.5) (ssDNA)
DNA: AGCAGCACAGAGGTCAGATGGAGTCGGGTGGCTATTGGGTATGGACCGTGCCTATGCGTGCTACCGTGAA
B5: T_beads_re_apt.9 (ssDNA)
DNA: AGCAGCACAGAGGTCAGATGGGGGATGGTTAGGGTGGCTTAATATTGACCCCTATGCGTGCTACCGTGAA
B6: T_apt.5 (ssDNA)
DNA: AGCAGCACAGAGGTCAGATGGTGGATTTGGGTGGATTGGTATGAACTGACCCTATGCGTGCTACCGTGAA

One data set concerns the target T1, thrombin (UniProt P00734;P00734 P00734:328-363,P00734:364-622). Nature of the data set: SPR; HBS-EP, 150 mM NaCl, pH 7.0. (In general: In SPR one partner is held on a chip, and binding of the other changes the refractive index at the surface.)
As usually defined, the Kd is the constant that tells how readily two partners part at equilibrium. For the molecule B1, binding was put at a Kd of 76 nM. Same read-out and setting: the figure for B2 is 55 nM; for B3 it is 81 nM.

The next data set has as its target T1, thrombin. Nature of the data set: SPR; no specific response.
With B4, the binding result is reported as “no binding”. The same measure, in the same setting: the entry for B5 is “no binding”; for B6 it is “no binding”.
